Assay results from patent US20260109763A1 (DENALI THERAPEUTICS, published 2026).
Where two headings read alike, the source gives them in different places.

How the values were obtained:
[1] = target: T1, human PILRB on cells (human, UniProt Q9UKJ0 20-227); assay: flow cytometry, CHO cells expressing hPILRB, MFI as fold over isotype control
T1 construct: Expressed on CHO-K1 cells, or together with DAP12 on HEK293 cells (hPILRB-DAP12 OE HEK293); also called hPILRB; hPILRB-DAP12

[2] = target: T2, cynomolgus monkey PILRA extracellular domain (recombinant) (cynomolgus monkey); assay: SPR, Biacore 8K, recombinant ECD
T2 construct: also called cynoPILRA; Cyno PILRA
Protocol: (§1) Antibodies were captured on Biacore™ Series S CM5 sensor chips immobilized with mouse anti-human Fab (human Fab capture kit from GE Healthcare) followed by injections of serial 3-fold dilutions of recombinant ECD reagents at a flow rate of 30 μL/min. Each sample was analyzed using a 3-minute association followed by a 10-minute dissociation. After each injection, the sensor chip was regenerated using a 5 0 mM glycine pH2.0 regeneration buffer. A 1:1 Languir model of simultaneous fitting of kₒₙ and koff was used for kinetics analysis.

[3] = target: T3, human PILRB extracellular domain (recombinant) (human, UniProt Q9UKJ0 20-191); assay: SPR, Biacore 8K, recombinant ECD
T3 construct: also called hPILRB
Protocol: as §1

[4] = target: T4, cynomolgus monkey PILRA on cells (cynomolgus monkey); assay: flow cytometry, CHO cells expressing cynoPILRA, MFI as fold over isotype control
T4 construct: Expressed on CHO-K1 cells; also called cynoPILRA; cyno PILRA

[5] = target: T5, human PILRA G78 on cells (human, UniProt Q9UKJ1 20-303); assay: flow cytometry on PILRA G78 expressing CHO-K1 cells (FIG. 1H)
T5 construct: wild-type iMicroglia are R78/G78 heterozygous (said in the assay field); also called hPILRA; hPILRA G78
Target sequence in this assay (Q9UKJ1 20-303 R78G limits assumed): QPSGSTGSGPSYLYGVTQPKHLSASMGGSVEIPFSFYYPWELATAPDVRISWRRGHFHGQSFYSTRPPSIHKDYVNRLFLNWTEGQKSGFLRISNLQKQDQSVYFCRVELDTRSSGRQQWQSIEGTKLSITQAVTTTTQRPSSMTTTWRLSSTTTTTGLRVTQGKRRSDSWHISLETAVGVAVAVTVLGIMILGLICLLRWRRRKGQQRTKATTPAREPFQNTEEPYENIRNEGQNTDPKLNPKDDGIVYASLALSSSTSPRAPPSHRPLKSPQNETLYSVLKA
Protocol: (§2) PILRA G78 or R78 overexpressing HEK293 cells were stained with NucBlue Live cell stain for 30 mins at RT. […] Cell lines were run in duplicate to account for intra-variability, for a total of N=3. The same protocol was used for CHO-K1 cells expressing hPILRA G78.

[6] = target: T6, human PILRA R78 on cells (human, UniProt Q9UKJ1 20-303); assay: flow cytometry on HEK293 PILRA R78 cells without sialidase treatment; without sialidase treatment
T6 construct: also called hPILRA R78; PILRA 78R
Protocol: (§3) PILRA 78G or PILRA 78R expressing HEK293 cells were treated with SialEXO (Genovis). […] It is a combination of two sialidases acting on α2-3, α2-6 and α2-8 linkages. […] Cells were then washed twice and incubated and stained with NucBlue Live Stain for 30 mins at RT.
(§4) Following the same protocol, sialidase treatment was also performed on HEK cells expressing PILRA R78.

[7] = target: T5, human PILRA G78 on cells; assay: flow cytometry on HEK293 PILRA G78 cells without sialidase treatment
Protocol: as §3

[8] = target: T5, human PILRA G78 on cells; assay: flow cytometry on HEK293 PILRA G78 cells with sialidase treatment
Protocol: as §3

[9] = target: T6, human PILRA R78 on cells; assay: cell-based or functional assay
[10] = target: T6, human PILRA R78 on cells; assay: flow cytometry on HEK293 PILRA R78 cells with sialidase treatment; with sialidase treatment
Protocol: as §3, §4

[11] = target: T6, human PILRA R78 on cells; assay: flow cytometry on PILRA R78 expressing HEK293 cells (FIG. 1F); HEK293 cells expressing PILRA R78
Protocol: as §2

[12] = target: T5, human PILRA G78 on cells; assay: flow cytometry on HEK293 cells expressing hPILRA G78
Target sequence in this assay (Q9UKJ1 20-303 R78G limits assumed): as above
Protocol: Parental HEK293 cells were labeled with NucBlue Live ReadyProbes Reagent for 30 mins. […] Antibody binding to the cells was detected by FACS and median fluorescence intensity (MFI) was derived from data analysis performed with the FLOJO software (FIGS. 1A-1C).

[13] = target: T5, human PILRA G78 on cells; assay: cell-based or functional assay
Target sequence in this assay (Q9UKJ1 20-303 R78G limits assumed): as above

[14] = target: T7, human PILRA R78 extracellular domain (recombinant) (human, UniProt Q9UKJ1 20-197); assay: SPR, Biacore 8K; antibody captured via anti-human Fab, recombinant ECD injected; 1:1 fit;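 also: CM5 sensor chip, ECD analyte in threefold dilution series at 30 µL/min, 3 min association and 10 min dissociation, kon and koff fitted simultaneously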
T7 construct: also called hPILRA R78
Protocol: as §1

[15] = target: T3, human PILRB extracellular domain …; assay: as above
Protocol: as §1

[16] = target: T8, human PILRA G78 extracellular domain (recombinant hPILRA ECD) (human, UniProt Q9UKJ1 20-197); assay: as above
T8 construct: also called hPILRA G78
Protocol: as §1

[17] = target: T5, human PILRA G78 on cells; assay: cell-based or functional assay; remark: listed apart in the source
Target sequence in this assay (Q9UKJ1 20-303 R78G limits assumed): as above

[18] = target: T1, human PILRB on cells; assay: flow cytometry (MFI), CHO-K1 cells expressing hPILRB
Protocol: Antibody binding to the cells was detected by FACS and MFI was derived from data analysis performed with the FLOJO software.

[19] = target: T2, cynomolgus monkey PILRA extracellular …; assay: SPR, Biacore 8K; antibody captured via anti-human Fab, recombinant ECD injected; 1:1 fit;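 also: CM5 sensor chip, ECD analyte in threefold dilution series at 30 µL/min, 3 min association and 10 min dissociation, kon and koff fitted simultaneously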
Protocol: as §1

[20] = target: T5, human PILRA G78 on cells; assay: flow cytometry on PILRA G78 expressing HEK293 cells (FIG. 1D); HEK293 cells expressing PILRA G78
Protocol: as §2

[21] = target: T5, human PILRA G78 on cells; assay: flow cytometry on HEK293 cells expressing hPILRA G78; remark: listed apart in the source
Target sequence in this assay (Q9UKJ1 20-303 R78G limits assumed): as above

[22] = target: T2, cynomolgus monkey PILRA extracellular …; assay: SPR
[23] = target: T7, human PILRA R78 extracellular domain …; assay: SPR
Target sequence in this assay (Q9UKJ1 20-197 limits assumed): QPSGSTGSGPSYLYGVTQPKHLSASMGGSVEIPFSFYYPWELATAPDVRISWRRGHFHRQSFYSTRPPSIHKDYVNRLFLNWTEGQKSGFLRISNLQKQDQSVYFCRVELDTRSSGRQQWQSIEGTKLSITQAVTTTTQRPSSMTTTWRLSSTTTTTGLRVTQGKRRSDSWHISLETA

[24] = target: T3, human PILRB extracellular domain …; assay: SPR
[25] = target: T8, human PILRA G78 extracellular domain …; assay: SPR
[26] = target: T8, human PILRA G78 extracellular domain …; assay: SPR, Biacore 8K; hPILRA ECD; antibody with wild-type Fc
Protocol: as §1
Characterization for binding affinities of the humanized antibodies to hPILRA ECD were measured by SPR using a Biacore 8K instrument (Table 7).

[27] = target: T5, human PILRA G78 on cells; assay: cell binding, HEK293 cells expressing hPILRA G78; antibody with modified Fc
Target sequence in this assay (Q9UKJ1 20-303 R78G limits assumed): as the sequence (Q9UKJ1 20-303 R78G limits assumed) above

[28] = target: T6, human PILRA R78 on cells; assay: cell binding, HEK293 cells expressing hPILRA R78; antibody with modified Fc
[29] = target: T2, cynomolgus monkey PILRA extracellular …; assay: SPR; remark: listed apart in the source
[30] = target: T7, human PILRA R78 extracellular domain …; assay: SPR; remark: listed apart in the source
Target sequence in this assay (Q9UKJ1 20-197 limits assumed): as the sequence (Q9UKJ1 20-197 limits assumed) above

[31] = target: T3, human PILRB extracellular domain …; assay: SPR; remark: listed apart in the source
[32] = target: T8, human PILRA G78 extracellular domain …; assay: SPR; remark: listed apart in the source

T1 sequence (Q9UKJ0 20-227 limits assumed): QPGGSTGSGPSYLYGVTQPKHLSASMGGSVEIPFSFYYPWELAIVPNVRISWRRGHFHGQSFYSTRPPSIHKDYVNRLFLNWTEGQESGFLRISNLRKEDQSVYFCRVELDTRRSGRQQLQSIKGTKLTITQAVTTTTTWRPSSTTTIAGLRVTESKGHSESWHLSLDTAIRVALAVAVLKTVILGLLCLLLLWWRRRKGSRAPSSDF
T2 sequence (chain, as listed by the source limits assumed): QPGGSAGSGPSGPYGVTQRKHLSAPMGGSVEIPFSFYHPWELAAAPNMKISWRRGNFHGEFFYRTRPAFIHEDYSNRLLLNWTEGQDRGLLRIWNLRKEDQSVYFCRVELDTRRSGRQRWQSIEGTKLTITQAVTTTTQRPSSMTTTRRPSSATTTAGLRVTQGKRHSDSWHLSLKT
T4 sequence (chain, as listed by the source limits assumed): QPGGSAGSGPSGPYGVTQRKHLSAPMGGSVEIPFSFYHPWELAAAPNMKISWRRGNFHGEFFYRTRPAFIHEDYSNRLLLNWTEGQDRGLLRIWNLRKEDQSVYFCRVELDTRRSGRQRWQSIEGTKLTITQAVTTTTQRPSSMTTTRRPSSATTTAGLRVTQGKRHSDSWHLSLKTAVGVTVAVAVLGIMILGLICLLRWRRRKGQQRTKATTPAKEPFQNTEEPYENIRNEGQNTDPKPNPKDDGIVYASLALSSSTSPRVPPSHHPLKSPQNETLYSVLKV
T8 sequence (Q9UKJ1 20-197 R78G limits assumed): as the sequence (Q9UKJ1 20-197 limits assumed) above, with R59G counted along it
T6 sequence (Q9UKJ1 20-303 limits assumed): as the sequence (Q9UKJ1 20-303 R78G limits assumed) above, with G59R counted along it
T3 sequence (Q9UKJ0 20-191 limits assumed): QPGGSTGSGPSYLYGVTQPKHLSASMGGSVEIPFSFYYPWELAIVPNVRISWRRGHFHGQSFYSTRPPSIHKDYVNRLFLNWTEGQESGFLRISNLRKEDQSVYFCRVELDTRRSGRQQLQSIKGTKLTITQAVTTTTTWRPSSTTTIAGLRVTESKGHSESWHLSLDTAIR

B1: Reference Antibody #1 (antibody, human IgG1, kappa, L234A L235A, V domains shown)
VH: QVTLQESGPGILQPSQTLSLTCSFSGFSLSTFGMGVGWIRQPSGKGLEWLAHIWWDDDKYYNPALKSRLTISKDTSKNQVFLKIASVDTADIATYYCARVEDYGNPFDYWGQGTTLTVSS
VL: DIQMNQSPSSLSASLGDTITITCHASQNIHVWLNWYQQKPGNIPKLLIYKASNLHTGVPSRFSGSGSGTGFTVTISSLQPEDIATYYCQQGQSYPLTFGAGTKLELKR
[1]
  binding result: no binding (tested: 100 nM)
[2]
  binding result: no binding
[3]
  binding result: no binding
[4]
  binding result: no binding (tested: 100 nM)

B2: Reference Antibody #2 (antibody, human IgG1, kappa, L234A L235A, V domains shown)
VH: QVILKESGPGILQSSQTLSLTCSFSGFSLSTFGMGVGWIRQPSGKGLESLAHIWWDDDKFYNPALKSRLTISKDTSKSQVFLKIANVDTADIATYYCTRIEDYGSYFAYWGQGTTLTVSS
VL: DVQMNQSPSSLSASLGDPITITCHASQNIHVWLNWYQQRPGNIPRLLIYKASNLHTGVPSRFSGSGSGTGFTLTISSLQPEDIATYYCQQGQSYPYTFGGGTKLEIKR
[1]
  binding result: no binding (tested: 100 nM)
[2]
  binding result: no binding
[3]
  binding result: no binding
[4]
  binding result: no binding (tested: 100 nM)

B3: Reference Antibody #4 (antibody, human IgG1, kappa, L234A L235A, V domains shown)
VH: QVTLKESGPGILQPSQTLSLTCSFSGFSLTTFGMGVGWIRQPSGKGLEWLAHIWWDDDKYYNPALKSRLTISKDISKNQVFLKIANVDTADTATYYCARIEDYGNPFDYWGQGTTLTVSS
VL: DIQMNQSPSSLSASLGDTITITCHASQNIHVWLSWYQQKPGNIPKLLIYKASNLHTGVPSRFSGSGSGTGFTLTISSLQPEDIATYYCQQGQSYPLTFGAGTKLELKR
[1]
  binding result: no binding (tested: 100 nM)
[2]
  binding result: no binding
[3]
  binding result: no binding
[4]
  binding result: no binding (tested: 100 nM)

B4: Anti-PILRA antibody clone 6 (antibody, V domains shown)
VH: EVQLQQSGPELQRPGASVKLSCKASGYTFTEYYMYWVKQRPKQGLELIGRIDPEDGGTDYIEKFKNKATLTADTSSNTAYMQLSSLTSEDTATYFCATTIRGTVFAFWGQGTLVTVSS
VL: DIQMTQSPASLSASLGETVTIECRASEDIFNGLAWYQQKPGKSPHLLIYNAKTLHTGVPSRFSGSGSGSQYSLKINSLQSEDVASYFCQQYYDYPLTFGSGTKLEIK
notes: the printed lines of the VL are out of order there
[5]
  EC50: 7.6 nM
[6]
  EC50: 0.7 nM
[7]
  EC50: 13 nM
[8]
  EC50: 4.8 nM
[9]
  pSTAT3 S727 induction, EC50 (nM): 7.13 nM
  pSTAT3 Y705 induction, EC50 (nM): 3.18 nM
[10]
  EC50: 0.3 nM
[11]
  EC50: 2 nM
[12]
  EC50: 9.3 nM
[13]
  pSTAT3 S727 induction, EC50 (nM): 16 nM
  pSTAT3 Y705 induction, EC50 (nM): 12.1 nM
[14]
  Kd: 9.6 nM
[15]
  Kd: 90 nM
[16]
  Kd: 0.72 nM

B5: Anti-PILRA antibody clone 1 (antibody, V domains shown)
VH: EVQLVESGGGLVQPGRSLRLSCAVSGFTFDDYAMHWVRQAPGKGLEWVSGFSWNSGSIGYPDSVKGRFTISRDNAKNSLYLQMNSLRAEDTAFYYCAKDKSISAAGRFDYWGQGTLVTVSS
VL: DIQMTQSPSSLSASVGDRVTITCQASRRINNYLNWYQQKPGKAPKLLIYDASNLETGVPSRFTGSGSGTDFTLTISSLQPEDIATYYCQQYDNLPLTFGGGTKIKIK
[6]
  EC50: 14 nM
[7]
  EC50: 6.8 nM
[17]
  pSTAT3 Y705 induction, EC50 (nM): 5.66 nM
  pSTAT3 Y705 induction, Fold Over Background: 16.2 fold
[8]
  EC50: 1.8 nM
[10]
  EC50: 5.6 nM
[3]
  binding result: no binding
[12]
  EC50: 13.8 nM
[18]
  binding result: no binding (tested: 100 nM)
[19]
  Kd: 0.91 nM
[16]
  Kd: 2.3 nM

B6: Anti-PILRA antibody clone 12 (antibody, V domains shown)
VH: EVQLVQSGAEVKKPGASVKVSCKASGYTFTEYYMYWVRQAPGQGLELIGRIDPEDGGTDYIEKFKNRVTITADTSTSTAYLELSSLRSEDTAVYYCATTIRGTVFAFWGQGTLVTVSS
VL: DIQMTQSPSSLSASVGDRVTITCRASEDIFNGLAWYQQKPGKSPKLLIYNAKTLHTGVPSRFSGSGSGSDYTLTISSLQPEDFATYFCQQYYDYPLTFGQGTKVEIK
notes: Humanized; also called Ab.12
[5]
  EC50: 10.8 nM
[20]
  EC50: 12 nM
[21]
  EC50: 12 nM
[9]
  pSTAT3 S727 induction, EC50 (nM): 7.41 nM
  pSTAT3 S727 induction, Fold Over Background: 21.4 fold
  pSTAT3 Y705 induction, EC50 (nM): 4.53 nM
  pSTAT3 Y705 induction, Fold Over Background: 34.6 fold
[22]
  Kd: 1.8 nM
[23]
  Kd: 17 nM
[24]
  Kd: 263 nM
[25]
  Kd: 1.2 nM
[11]
  EC50: 2.7 nM
[26]
  Kd: 1.58 nM
[13]
  pSTAT3 S727 induction, EC50 (nM): 16 nM
  pSTAT3 S727 induction, Fold Over Background: 31.6 fold
  pSTAT3 Y705 induction, EC50 (nM): 11.7 nM
  pSTAT3 Y705 induction, Fold Over Background: 31.3 fold

B7: Anti-PILRA antibody clone 39 (antibody, V domains shown)
VH: EVQLVQSGAEVKKPGASVKVSCKASGYTFTEYYMYWVRQAPGQGLELIGRIDPEDGGTDYIEKFKNRVTLTADTSTSTAYLELSSLRSEDTAVYYCATTIRGTVFAFWGQGTLVTVSS
VL: DIQMTQSPSSLSASVGDRVTITCRASEDIFNGLAWYQQKPGKSPKLLIYNAKTLHTGVPSRFSGSGSGSDYTLTISSLQPEDFATYFCQQYYDYPLTFGQGTKVEIK
notes: Humanized
[27]
  EC50: 7 to 8 nM
[28]
  EC50: 1 to 2 nM
[29]
  Kd: 0.4 nM
[30]
  Kd: 6.2 to 6.3 nM
[31]
  Kd: 38 to 56 nM
[32]
  Kd: 0.2 to 0.4 nM

B8: Anti-PILRA antibody clone 38 (antibody, V domains shown)
VH: EVQLVQSGAEVKKPGASVKVSCKASGYTFTEYYMYWVRQAPGQGLELIGRIDPEDGGTDYVEKFKNRVTATADTSTSTAYLELSSLRSEDTAVYYCASTIRGTVFVYWGQGTLVTVSS
VL: DIQMTQSPSSLSASVGDRVTITCRPSEDIYNGLAWYQQKPGKAPKLLIYNANSLHTGVPSRFSGSGSGTDYTLTISSLQPEDFATYFCQQYYDYPLTFGQGTKVEIK
notes: Humanized
[27]
  EC50: 13 to 14 nM
[28]
  EC50: 2 to 4 nM
[29]
  Kd: 0.2 to 0.3 nM
[30]
  Kd: 11 nM
[31]
  Kd: 35 to 53 nM
[32]
  Kd: 0.3 to 0.7 nM
